From US20210277097A1
Positions count from the first letter of the chain named.

T1: recombinant purified human RGM A (R&D Systems Cat#2459-RM) (human) (UniProt Q96B86)
T1 sequence: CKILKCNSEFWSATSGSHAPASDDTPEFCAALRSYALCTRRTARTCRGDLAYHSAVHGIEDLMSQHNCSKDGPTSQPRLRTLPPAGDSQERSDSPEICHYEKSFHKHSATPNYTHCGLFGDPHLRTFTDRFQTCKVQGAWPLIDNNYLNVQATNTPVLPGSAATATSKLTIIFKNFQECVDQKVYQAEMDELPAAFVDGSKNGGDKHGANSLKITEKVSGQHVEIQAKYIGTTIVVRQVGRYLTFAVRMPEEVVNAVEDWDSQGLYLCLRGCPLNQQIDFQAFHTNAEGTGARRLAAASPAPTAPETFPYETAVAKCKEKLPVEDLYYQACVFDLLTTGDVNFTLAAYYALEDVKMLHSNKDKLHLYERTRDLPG

B1: rat anti-human RGM A monoclonal antibody 8D1 (antibody, V domains shown)
VH: EVQLQQSGPELVKPGTSVKMSCKTSGYTFTSYVMHWVKQKPGQGLEWIGYIIPYNDNTKYNEKFKGKATLTSDKSSSTAYMELSSLTSEDSAVYYCARRNEYYGSSFFDYWGQGTTLTVSS
VL: DIQMTQSPASLSASLEEIVTITCQASQDIDNYLAWYHQKPGKSPRLLIYGATNLADGVPSRFSGSRSGTQFSLKINRLQIEDLGIYYCLQGYIPPRTFGGGTKLELKR
B2: h5F9.1 (antibody, human IgG1, V domains shown)
VH: EVQLVESGGGVVQPGRSLRLSCAASGFTFSNYGMNWVRQAPGKGLEWVAMIYYDSSEKHYADSVKGRFTISRDNSKNTLYLQMNSLRAEDTAVYYCARGTTPDYWGQGTMVTVSS
VL: DIVMTQTPLSLSVTPGQPASISCRSSQSLEYSDGYTFLEWYLQKPGQSPQLLIYEVSNRFSGVPDRFSGSGSGTDFTLKISRVEAEDVGVYYCFQATHDPLTFGQGTKLEIKR
B3: h5F9.9 (antibody, human IgG1, V domains shown)
VH: B2 VH
VL: B2 VL with I2V, T7S, S12P, P15L
B4: h5F9.11 (antibody, human IgG1, V domains shown)
VH: B2 VH with V11L, R16G, A49S, R98K
VL: B2 VL with I2V, T7S, S12P, P15L
B5: h5F9.5 (antibody, human IgG1, V domains shown)
VH: B2 VH
VL: B2 VL with I2V, T7S, S12P, P15L, Y41F, L42Q, K44R, Q50R, L51R
B6: h5F9.3 (antibody, human IgG1, V domains shown)
VH: B2 VH with V11L, R16G, A49S, R98K
VL: B2 VL
B7: h5F9.7 (antibody, human IgG1, V domains shown)
VH: B2 VH with V11L, R16G, A49S, R98K
VL: B2 VL with I2V, T7S, S12P, P15L, Y41F, L42Q, K44R, Q50R, L51R
B8: rat anti-human RGM A monoclonal antibody 5F9 (antibody, V domains shown)
VH: EVQLVESGGGLVQPGSSLKLSCVASGFTFSNYGMNWIRQAPKKGLEWIGMIYYDSSEKHYADSVKGRFTISRDNSKNTLYLEMNSLRSEDTAIYYCAKGTTPDYWGQGVMVTVSS
VL: DVVLTQTPVSLSVTLGDQASMSCRSSQSLEYSDGYTFLEWFLQKPGQSPQLLIYEVSNRFSGVPDRFIGSGSGTDFTLKISRVEPEDLGVYYCFQATHDPLTFGSGTKLEIKR
B9: h5F9.8 (antibody, human IgG1, V domains shown)
VH: B2 VH with V11L, R16G, V37I, V48I, A49G, R98K
VL: B2 VL with I2V, T7S, S12P, P15L, Y41F, L42Q, K44R, Q50R, L51R
B10: h5F9.6 (antibody, human IgG1, V domains shown)
VH: B2 VH with V37I, V48I, A49G, R98K
VL: B2 VL with I2V, T7S, S12P, P15L, Y41F, L42Q, K44R, Q50R, L51R
B11: h5F9.20 (antibody, human IgG1, V domains shown)
VH: B2 VH with V37I, V48I, A49G, R98K
VL: B2 VL with I2V, M4L, T7S, S12P, P15L, Y41F, L42Q, K44R, Q50R, L51R
B12: h5F9.2 (antibody, human IgG1, V domains shown)
VH: B2 VH with V37I, V48I, A49G, R98K
VL: B2 VL
B13: h5F9.4 (antibody, human IgG1, V domains shown)
VH: B2 VH with V11L, R16G, V37I, V48I, A49G, R98K
VL: B2 VL
B14: h5F9.26 (antibody, human IgG1, V domains shown)
VH: B2 VH with V11L, R16G, V37I, V48I, A49G, R98K
VL: B2 VL with I2V, M4L, T7S, S12P, P15L
B15: h5F9.22 (antibody, human IgG1, V domains shown)
VH: B2 VH with V37I, V48I, A49G, R98K
VL: B2 VL with I2V, M4L, T7S, S12P, P15L
B16: h5F9.10 (antibody, human IgG1, V domains shown)
VH: B2 VH with V37I, V48I, A49G, R98K
VL: B2 VL with I2V, T7S, S12P, P15L
B17: h5F9.12 (antibody, human IgG1, V domains shown)
VH: B2 VH with V11L, R16G, V37I, V48I, A49G, R98K
VL: B2 VL with I2V, T7S, S12P, P15L

What was measured:
[1] = biological target: T1, recombinant purified human RGM A (R&D Systems Cat#2459-RM) (human); assay: direct ELISA: plate coated with hRGM A 2 µg/mL, biotinylated antibody in 1:5 dilutions, streptavidin-HRP, TMB, OD 450
[2] = biological target: rat RGM A expressed on BAF3 cells (rat); assay: FACS on BAF3-ratRGMA stable cell line, unlabelled antibody, anti-rat IgG PE; unstained cells 4.71
[3] = biological target: T1, recombinant purified human RGM A (R&D Systems Cat#2459-RM) (human); assay: competition ELISA on coated hRGMA; competitor: biotinylated chimeric 5F9

| Binder | EC50 (read off the curve) [1] [µg/mL] | Median, FL2-H [2] | IC50 [3] [µg/mL] |
| --- | --- | --- | --- |
| B1 | 0.2 | 5.37 |  |
| B2 |  |  | > 10 |
| B3 |  |  | > 10 |
| B4 |  |  | > 10 |
| B5 |  |  | > 10 |
| B6 |  |  | > 10 |
| B7 |  |  | > 10 |
| B8 | 0.08 | 29.6 |  |
| B9 |  |  | > 10 |
| B10 |  |  | > 10 |
| B11 |  |  | > 2 |
| B12 |  |  | > 10 |
| B13 |  |  | > 10 |
| B14 |  |  | > 2 |
| B15 |  |  | > 2 |
| B16 |  |  | > 10 |
| B17 |  |  | > 10 |
